Data taken from the Human Domainome abundance scans (Beltran et al. 2025).
± gives the uncertainty stated by the source.

B1: RNA-binding E3 ubiquitin-protein ligase MEX3C, residues 325 to 391; numbered along this chain, Q5U5Q3 (parent)
chain: GQTTVQVRVPYRVVGLVVGPKGATIKRIQQQTHTYIVTPSRDKEPVFEVTGMPENVDRAREEIEMHI

Variants of: B1
Experiment: abundance fitness (aPCA) (normalised: wild type 0, dead -1); higher = more abundant; growth selection in yeast, the domain comes from the species named
Details: Homo sapiens

Abundance fitness of substitutions, site by site:
H33: D 0.184 ± 0.068 | K 0.016 ± 0.076 | C -0.426 ± 0.13 | P -0.845 ± 0.2 | A -0.182 ± 0.061 | L -0.582 ± 0.096 | F -0.438 ± 0.18 | E -0.267 ± 0.091 | T -0.744 ± 0.2 | Q 0.088 ± 0.091 | R -0.165 ± 0.042
R27: P -0.834 ± 0.36 | K 0.111 ± 0.16 | F -0.755 ± 0.37 | Q -0.399 ± 0.3 | M -0.346 ± 0.19 | D -0.656 ± 0.13 | A -0.37 ± 0.069 | V -0.577 ± 0.11 | G -0.591 ± 0.065 | L -0.665 ± 0.17 | S -0.465 ± 0.1 | N -0.59 ± 0.17 | T -0.38 ± 0.17 | C -0.832 ± 0.25 | E -0.512 ± 0.12 | W -0.241 ± 0.1 | I -0.901 ± 0.48
S40: V -0.229 ± 0.066 | T -0.081 ± 0.092 | N 0.032 ± 0.13 | I -0.34 ± 0.24 | C -0.332 ± 0.093 | M -0.016 ± 0.1 | G 0.03 ± 0.047 | L -0.133 ± 0.057 | D 0.138 ± 0.1 | E -0.029 ± 0.1 | Y -0.137 ± 0.33 | W -0.215 ± 0.07 | A 0.021 ± 0.067 | F -0.349 ± 0.13 | Q -0.033 ± 0.1 | P 0.08 ± 0.072 | K -0.072 ± 0.081 | H -0.352 ± 0.23
P45: F -0.417 ± 0.13 | C -0.47 ± 0.092 | A -0.422 ± 0.083 | E -0.375 ± 0.09 | D -0.677 ± 0.12 | G -0.434 ± 0.063 | H -0.502 ± 0.11
D42: L -0.263 ± 0.066 | V -0.465 ± 0.069 | S -0.332 ± 0.08 | F -0.198 ± 0.17 | M -0.128 ± 0.089 | H -0.191 ± 0.091 | A -0.292 ± 0.056 | T -0.245 ± 0.078 | W -0.335 ± 0.088 | Y -0.181 ± 0.1 | R -0.408 ± 0.052 | N -0.071 ± 0.1 | Q -0.122 ± 0.11 | G 0.099 ± 0.04 | P -1.01 ± 0.31 | C -0.425 ± 0.12 | K -0.139 ± 0.11 | I -0.342 ± 0.14
T32: Q -0.669 ± 0.17 | H -0.488 ± 0.17 | W -0.916 ± 0.19 | A -0.712 ± 0.12 | L -0.734 ± 0.11 | V -0.682 ± 0.084 | I -0.944 ± 0.23 | P -0.654 ± 0.15 | Y -0.777 ± 0.25 | R -0.938 ± 0.14 | E -0.707 ± 0.15 | C -0.578 ± 0.17 | D -0.575 ± 0.12 | M -0.653 ± 0.2
P39: N -0.234 ± 0.16 | K -0.149 ± 0.078 | H -0.402 ± 0.17 | C -0.221 ± 0.13 | Q -0.477 ± 0.12 | E -0.424 ± 0.088 | A -0.497 ± 0.079 | I -0.57 ± 0.24 | D -0.383 ± 0.11 | R -0.276 ± 0.059 | Y -0.328 ± 0.26 | F -0.286 ± 0.14 | G -0.467 ± 0.07 | W -0.58 ± 0.11 | M -0.502 ± 0.12 | V -0.476 ± 0.074 | T -0.409 ± 0.089
Q29: K -0.81 ± 0.14 | M 0.205 ± 0.091 | P -0.765 ± 0.18 | T -0.619 ± 0.12 | F -0.882 ± 0.29 | V -0.746 ± 0.15 | G -0.308 ± 0.068 | C -0.392 ± 0.18 | R -0.549 ± 0.071 | A 0.106 ± 0.062 | W -0.629 ± 0.097 | D -0.34 ± 0.23 | S -0.179 ± 0.082 | E -0.241 ± 0.07 | I -0.736 ± 0.38
K43: M 0.125 ± 0.078 | E -0.191 ± 0.072 | A 0.058 ± 0.05 | F -0.431 ± 0.13 | D 0.131 ± 0.078 | N -0.093 ± 0.11 | T -0.05 ± 0.066 | Y -0.46 ± 0.15 | C -0.1 ± 0.067 | L -0.579 ± 0.081 | S 0.12 ± 0.048 | H 0.012 ± 0.093 | R -0.133 ± 0.039 | I -0.583 ± 0.14 | W -0.435 ± 0.072 | Q -0.059 ± 0.072 | G 0.108 ± 0.035 | P -0.565 ± 0.1 | V -0.423 ± 0.069
T34: M -0.788 ± 0.14 | A -0.877 ± 0.15 | N -0.791 ± 0.22 | R -0.641 ± 0.068 | G -0.828 ± 0.1 | L -0.689 ± 0.096 | S -0.802 ± 0.13 | Q -1.01 ± 0.41 | I -0.866 ± 0.25 | C -0.423 ± 0.14 | Y -1.07 ± 0.33 | D -0.503 ± 0.15 | P -0.867 ± 0.25 | W -0.947 ± 0.2 | K -0.34 ± 0.12 | F -0.969 ± 0.36
E44: L -0.582 ± 0.094 | G -0.492 ± 0.059 | V -0.472 ± 0.08 | T -0.798 ± 0.37 | N -0.222 ± 0.17 | M -0.687 ± 0.25 | S -0.459 ± 0.16 | C -0.834 ± 0.26 | Q -0.305 ± 0.23 | P -0.374 ± 0.18 | R -0.719 ± 0.1 | W -0.695 ± 0.11 | K -0.697 ± 0.17 | F -0.906 ± 0.31 | A -0.177 ± 0.068
